Laboratory results taken from publication PMC3590194.

Test system: bivalirudin (Angiomax), TMR-labeled (synthetic)
Experiment: fluorescence anisotropy
Settings: 5 mM Mg2+?; BB = PBS (no MgCl2/CaCl2) with 5 mM MgCl2 (flow cytometry, 1 h incubation; FA buffer not stated in the material); pH and binding temperature not stated

| Sequence | Kd |
| --- | --- |
| ATCGTCTGCTCCGTCCAATACGTAACATCCCCGTAATACTACTACGGTCGTGCTGGTTTGGTGTGAGGTCGTGC [JPB2] | 5.99 µM |
| ATCGTCTGCTCCGTCCAATATATTGTGTGACCCCCCTCTTGTTTTGGTGTGAGGTCGTGC [JPB5] | 5.76 µM |
